From PMC2115152 (The Journal of Cell Biology, 1988)

Target: F-actin (rabbit, UniProt P68135 1-377)
Assay: co-sedimentation

stoichiometry N: ~6 actin monomers per 83-kD protein
B1: 83-kD nonmuscle caldesmon (natural protein)
chain: MLSRSGSQGRRCLATLSQIAYQRNDDDEEEAARERRRRARQERLRQKQEEESLGQVTDQVEAHVQNSAPDEESKPATANAQVEGDEEAALLERLARREERRQKRLQEALERQKEFDPTITDGSLSVPSRRMQNNSAENETAEGEEKGESRSGRYEMEETEVVITSYQKNSYQDAEDKKKEEKEEEEEEEKLKGGNLGENQIKDEKIKKDKEPKEEVKNFLDRKKGFTEVKAQNGEFMTHKLKQTENAFSPSRSGGRASGDKEAEGAPQVEAGKRLEELRRRRGETESEEFEKLKQKQQEAALELEELKKKREERRKVLEEEEQRRKQEEADRKAREEEEKRRLKEEIERRRAEAAEKRQKMPEDGLSEDKKPFKCFTPKGSSLKIEERAEFLNKSVQKSGVKSTHQAAVVSKIDSRLEQYTNAIEGTKASKPMKPAASDLPVPAEGVRNIKSMWEKGSVFSSPSASGTPNKETAGLKVGVSSRINEWLTKSPDGNKSPAPKPSDLRPGDVSGKRNLWEKQSVDKVTSPTKV
